The values below come from PMC11367481 (eBioMedicine, 2024).

The assay has as its target ACE2-Fc, recombinant protein (Sino Biological 10108-H02H) (human, UniProt Q9BYF1). Kind of assay: BLI. Background: In BLI a coated tip is dipped into the sample, and binding shifts an interference pattern.

B1: BTN3A2-L-His, recombinant protein (Sino Biological 13515-H08H) (natural protein)
chain: not shown
Consider B1, for which the Kd (usually the constant that tells how readily two partners part at equilibrium) came out at 92.7 ± 0.359 nM.
